Test results as given in the supplement of paper PMC10201428.
± gives the standard deviation of the averaged measurements.

Tests used:
[1] = system: VchCAST RNA-guided transposition machinery (E. coli BL21(DE3) host, lacZ target); test: relative integration efficiency (T-LR orientation) vs wild-type transposon end (log2 (normalized fold change)); transposon end mutated: right end (5 bp flank + 75 bp right end); higher = more efficient transposition
In short: (§1)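 Pools of 1549 left-end or 1849 right-end barcoded transposon variants were cloned into a pUC57 mini-transposon donor and co-transformed into E. coli BL21(DE3) with a T7-driven effector plasmid carrying a CRISPR array, tniQ-cas8-cas7-cas6 and tnsA-tnsB-tnsC. Plating used 0.1 mM IPTG at 37°C for 18 h, and input plasmids and genomic integration junctions were PCR-amplified for Illumina sequencing, with two biological output replicates and four reference barcodes. Relative integration efficiency is the log-transformed fold change of output over input barcode abundance, normalised to the reference barcodes.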

[2] = system: VchCAST RNA-guided transposition machinery (E. coli BL21(DE3) host, lacZ target); test: relative integration efficiency (T-RL orientation) vs wild-type transposon end (log2 (normalized fold change)); transposon end mutated: right end (5 bp flank + 75 bp right end); higher = more efficient transposition
In short: as §1

## ACATTTGTTGATACAACCATAAAATGATAATCACCCATAAATTGATAATTATCACACCCATAAATTGATATTGCCTCTGATCATAGTCAGACCAACATTGCTACGACCCGTATTCGCACCGACACTG
[1]
  relative integration efficiency (log2): -1.91 ± 0.79
[2]
  relative integration efficiency (log2): -4.33 ± 0.1

## ACATTTGTTGATACAACCATAAAATGATAATTACAACCATAAAGTGATATTTATCACAACCATAAAGTGATATTTACTCTGATCATAGTCAGACCAACATTGCTACGACCCGTATTCGCACCGACAC
[1]
  relative integration efficiency (log2): -0.228 ± 0.22
[2]
  relative integration efficiency (log2): 0.0131 ± 0.077

## ACATTTGTTGATACAACCATAAAATGATAATTACAACCATAAAATGATAATTATCACACCCATAAATTGATAATTACTCTGATCATAGTCAGACCAACATTGCTACGACCCGTATTCGCACCGACAC
[1]
  relative integration efficiency (log2): -0.0822 ± 0.2
[2]
  relative integration efficiency (log2): 0.0421 ± 0.03

## ACATTGTTTGATACAACCATAAAATGATAATTACACCCATAAATTGATAATTATCACACCCATAAATTGATATTGCCTCTGATCATAGTCAGACCAACATTGCTACGACCCGTATTCGCACCGACAC
[1]
  relative integration efficiency (log2): -4.94 ± 0.3
[2]
  relative integration efficiency (log2): -6.33 ± 0.24

## ACATTTGTTGATACAACCATATATTGATATCTCCAACCATAAAGTGATATTTATCACAACCATATATTGATATCTCCTCTGATCATAGTCAGACCAACATTGCTACGACCCGTATTCGCACCGACAC
[1]
  relative integration efficiency (log2): -0.237 ± 0.36
[2]
  relative integration efficiency (log2): -0.515 ± 0.17

## ACATTTCATGATACAACCATAAAATGATAATTACACCCATAAATTGATAATTATCACACCCATAAATTGATATTGCCTCTGATCATAGTCAGACCAACATTGCTACGACCCGTATTCGCACCGACAC
[1]
  relative integration efficiency (log2): -5.68 ± 0.91
[2]
  relative integration efficiency (log2): -4.85 ± 0.79

## ACATTTGTTGATACAACCATAAGTTGATATTTTCAACCATAAGTTGATATTTTTCAGTGGGTATTTAACTATAACGCTCTGATCATAGTCAGACCAACATTGCTACGACCCGTATTCGCACCGACAC
[1]
  relative integration efficiency (log2): 2.85 ± 0.1
[2]
  relative integration efficiency (log2): -0.302 ± 0.092

## ACATTTGTCGATACAACCATAAAATGATAATTACACCCATAAATGGATCATTATCACACCCAATTTAACTATAACGCTCTGATCATAGTCAGACCAACATTGCTACGACCCGTATTCGCACCGACAC
[1]
  relative integration efficiency (log2): 0.97 ± 0.063
[2]
  relative integration efficiency (log2): -1.61 ± 0.16

## ACATTTGTTGATATGTTCAACCATAAAATGATAATTACACCCATAAATTGATAATTATCACACCCATAAATTGATATTGCCTCTGATCATAGTCAGACCAACATTGCTACGACCCGTATTCGCACCG
[1]
  relative integration efficiency (log2): -7.23 ± 1.7
[2]
  relative integration efficiency (log2): -6.34 ± 0.1

## ACATTTGTTGATACAACCATAAAGTGATATTTACAACCATAAGTTGATATTTTTCACAACCATAAAGTGATATTTACTCTGATCATAGTCAGACCAACATTGCTACGACCCGTATTCGCACCGACAC
[1]
  relative integration efficiency (log2): 0.0534 ± 0.15
[2]
  relative integration efficiency (log2): 0.0395 ± 0.16

## ACATTTGTTGATACAACCATAAGTTGATATTTTCAACCATAAAATGATAATTATCACAACCATATATTGATATCTCCTCTGATCATAGTCAGACCAACATTGCTACGACCCGTATTCGCACCGACAC
[1]
  relative integration efficiency (log2): 0.0384 ± 0.016
[2]
  relative integration efficiency (log2): -0.078 ± 0.041

## ACATTTGTTCATACAACCATAAAATGATAATTACACCCATAAATTCATAATTATCACACCCAATTTAACTATAACGCTCTGATCATAGTCAGACCAACATTGCTACGACCCGTATTCGCACCGACAC
[1]
  relative integration efficiency (log2): -0.697 ± 0.075
[2]
  relative integration efficiency (log2): -2.52 ± 0.32

## ACATTTGTTGATACAACCATAAAATGATAATTACACCCATAAATTGATAATTATCACACCCATAAATTGATATTGAAGATGATCATAGTCAGACCAACATTGCTACGACCCGTATTCGCACCGACAC
[1]
  relative integration efficiency (log2): 0.0825 ± 0.095
[2]
  relative integration efficiency (log2): 0.3393 ± 0.002

## ACATTTGTTGATACAACCATAAAATGATAATTACACCCATAAATTGAATTATATCACACCCATAAATTGATATTGCCTCTGATCATAGTCAGACCAACATTGCTACGACCCGTATTCGCACCGACAC
[1]
  relative integration efficiency (log2): -0.447 ± 0.17
[2]
  relative integration efficiency (log2): -1.65 ± 0.026

## ACATTTGTTGATACAACCATAAAATGATAATTACACCCATAAATTGATAATTATCACACCCCGCCCGGTCGCGGTAAGAGGATCATAGTCAGACCAACATTGCTACGACCCGTATTCGCACCGACAC
[1]
  relative integration efficiency (log2): 2.47 ± 0.19
[2]
  relative integration efficiency (log2): -0.532 ± 0.054

## ACATTTGTTGATACAACCATAAAATCTATATTACACCCATAAATTGATAATTATCACACCCATAAATTGATATTGCCTCTGATCATAGTCAGACCAACATTGCTACGACCCGTATTCGCACCGACAC
[1]
  relative integration efficiency (log2): -1.85 ± 0.057
[2]
  relative integration efficiency (log2): -1.55 ± 0.21

## ACATTTGTTGATACAACCATAAAGTGATATTTACACCCATAAATTGATAATTATCACACCCATAAATTGATAATTACTCTGATCATAGTCAGACCAACATTGCTACGACCCGTATTCGCACCGACAC
[1]
  relative integration efficiency (log2): -0.191 ± 0.54
[2]
  relative integration efficiency (log2): 0.112 ± 0.071

## ACATTTGTTGATACAACCATAAAATGATAATTAGTGGCATAAATTGATAATTATCACACCCATAAATTGATATTGCCTCTGATCATAGTCAGACCAACATTGCTACGACCCGTATTCGCACCGACAC
[1]
  relative integration efficiency (log2): -1.87 ± 0.24
[2]
  relative integration efficiency (log2): -1.91 ± 0.16

## ACATTTGTTGATACAACCATAAAATGCGCCGGCACAAACGCCCGGTCGCCGGCGACACAAACGCCCGGTCGCGGTAAGAGGATCATAGTCAGACCAACATTGCTACGACCCGTATTCGCACCGACAC
[1]
  relative integration efficiency (log2): -0.733 ± 0.15
[2]
  relative integration efficiency (log2): -3.75 ± 0.078

## ACATTTGTTGATACAACCATAAAATGATAATGACACCCATAAATTGATAATGATCACACCCATAAATTGATATTTCCTCTGATCATAGTCAGACCAACATTGCTACGACCCGTATTCGCACCGACAC
[1]
  relative integration efficiency (log2): 0.195 ± 0.093
[2]
  relative integration efficiency (log2): -0.238 ± 0.065

## ACATTTGTTGATACAACCATAAAATGATAATTACACCCATAAATTGATTCACACCCATAAATTGATATTGCCTCTGATCATAGTCAGACCAACATTGCTACGACCCGTATTCGCACCGACACTGACT
[1]
  relative integration efficiency (log2): 2.09 ± 0.12
[2]
  relative integration efficiency (log2): -1.49 ± 0.24

## ACATTTGTTGATACAACCATAAAAGGATCATTACACCCATCAATTGATAATTATCACACCCCATTTAACTATAACGCTCTGATCATAGTCAGACCAACATTGCTACGACCCGTATTCGCACCGACAC
[1]
  relative integration efficiency (log2): 0.228 ± 0.13
[2]
  relative integration efficiency (log2): -3.25 ± 0.32

## ACATTTGTTGATACAACCATAAAATGAGCCGGCACAAACGCCCGGTCGCCGGCGACACAAACGCCCGGTCGCGGTAAGAGGATCATAGTCAGACCAACATTGCTACGACCCGTATTCGCACCGACAC
[1]
  relative integration efficiency (log2): -0.24 ± 0.25
[2]
  relative integration efficiency (log2): -3.42 ± 0.22

## ACATTTGTTGATACATGCATAAAATGATAATTACACCCATAAATTGATAATTATCACACCCATAAATTGATATTGCCTCTGATCATAGTCAGACCAACATTGCTACGACCCGTATTCGCACCGACAC
[1]
  relative integration efficiency (log2): -0.66 ± 0.08
[2]
  relative integration efficiency (log2): -0.321 ± 0.046

## ACATTTGTTGATACAACCATAAAGTGATATTTACAACCATAAAATGATAATTATCACAACCATAAGTTGATATTTTCTCTGATCATAGTCAGACCAACATTGCTACGACCCGTATTCGCACCGACAC
[1]
  relative integration efficiency (log2): -0.0726 ± 0.055
[2]
  relative integration efficiency (log2): 0.113 ± 0.034

## ACATTTGTTGATACAACCATATATTGATATCTCCAACCATATATTGATATCTCTCACACCCATAAATTGATAATTACTCTGATCATAGTCAGACCAACATTGCTACGACCCGTATTCGCACCGACAC
[1]
  relative integration efficiency (log2): 0.23 ± 0.045
[2]
  relative integration efficiency (log2): -0.357 ± 0.067

## ACATTTGTTGATACACCCATAAATTGATAATTACAACCATAAGTTGATATTTTTCACACCCATAAATTGATATTGCCTCTGATCATAGTCAGACCAACATTGCTACGACCCGTATTCGCACCGACAC
[1]
  relative integration efficiency (log2): -0.56 ± 0.069
[2]
  relative integration efficiency (log2): -0.708 ± 0.17

## ACATTTGTTCATACAACCCTAAAATGATAATTACACCCATAAATTCATAATTATCACACCCAATTTAACTATAACGCTCTGATCATAGTCAGACCAACATTGCTACGACCCGTATTCGCACCGACAC
[1]
  relative integration efficiency (log2): -2.644 ± 0.026
[2]
  relative integration efficiency (log2): -5.31 ± 0.95

## ACATTTGTTGATACAACCATAAGTTGATATTTTCAACCATAAAATGATAATTATCACAACCATAAGTTGATATTTTCTCTGATCATAGTCAGACCAACATTGCTACGACCCGTATTCGCACCGACAC
[1]
  relative integration efficiency (log2): -0.119 ± 0.45
[2]
  relative integration efficiency (log2): -0.233 ± 0.067

## ACATTTGTTGATACAAAAATAAAATGATAATTACACCCATAAATTGATAATTATCACACCCATAAATTGATATTGCCTCTGATCATAGTCAGACCAACATTGCTACGACCCGTATTCGCACCGACAC
[1]
  relative integration efficiency (log2): -0.268 ± 0.48
[2]
  relative integration efficiency (log2): -0.328 ± 0.18

## ACATTTGTTGTATGAACCATAAAATGATAATTACACCCATAAATTGATAATTATCACACCCATAAATTGATATTGCCTCTGATCATAGTCAGACCAACATTGCTACGACCCGTATTCGCACCGACAC
[1]
  relative integration efficiency (log2): -2.29 ± 0.23
[2]
  relative integration efficiency (log2): -0.782 ± 0.022

## ACATTTGTTGATACAACCATAAAGTGATATTTACACCCATAAATTGATATTGCTCAGTGGGTATTTAACTATAACGCTCTGATCATAGTCAGACCAACATTGCTACGACCCGTATTCGCACCGACAC
[1]
  relative integration efficiency (log2): 2.56 ± 0.28
[2]
  relative integration efficiency (log2): -0.797 ± 0.16

## ACATTTGTTGATACAACCATAAAATGATAATTACACCCATAAAGGTCTAATTATCACACCCATAAATTGATATTGCCTCTGATCATAGTCAGACCAACATTGCTACGACCCGTATTCGCACCGACAC
[1]
  relative integration efficiency (log2): -1.72 ± 0.31
[2]
  relative integration efficiency (log2): -1.77 ± 0.13

## ACATTTGTTTCGCCAACCATAAAATGATAATTACACCCATAAATTGATAATTATCACACCCATAAATTGATATTGCCTCTGATCATAGTCAGACCAACATTGCTACGACCCGTATTCGCACCGACAC
[1]
  relative integration efficiency (log2): -3.75 ± 0.98
[2]
  relative integration efficiency (log2): -1.72 ± 0.26

## ACATTTGTTGATACTACCATAAAATGATAATTACTCCCATAAATTGATAATTATCACTCCCATAAATTGATATTGCCTCTGATCATAGTCAGACCAACATTGCTACGACCCGTATTCGCACCGACAC
[1]
  relative integration efficiency (log2): -0.0376 ± 0.31
[2]
  relative integration efficiency (log2): -0.805 ± 0.022
